In article PMC7299343, “Two forms of Opa1 cooperate to complete fusion of the mitochondrial inner-membrane” (eLife, 2020):
Numbering of substitutions follows the chain as printed. Names may count otherwise.

B1: long form of human Opa1 (l-Opa1), wild type (natural protein, UniProt O60313-1 88-960, looked up)
chain: FWPARLATRLLKLRYLILGSAVGGGYTAKKTFDQWKDMIPDLSEYKWIVPDIVWEIDEYIDFEKIRKALPSSEDLVKLAPDFDKIVESLSLLKDFFTSGSPEETAFRATDRGSESDKHFRKVSDKEKIDQLQEELLHTQLKYQRILERLEKENKELRKLVLQKDDKGIHHRKLKKSLIDMYSEVLDVLSDYDASYNTQDHLPRVVVVGDQSAGKTSVLEMIAQARIFPRGSGEMMTRSPVKVTLSEGPHHVALFKDSSREFDLTKEEDLAALRHEIELRMRKNVKEGCTVSPETISLNVKGPGLQRMVLVDLPGVINTVTSGMAPDTKETIFSISKAYMQNPNAIILCIQDGSVDAERSIVTDLVSQMDPHGRRTIFVLTKVDLAEKNVASPSRIQQIIEGKLFPMKALGYFAVVTGKGNSSESIEAIREYEEEFFQNSKLLKTSMLKAHQVTTRNLSLAVSDCFWKMVRESVEQQADSFKATRFNLETEWKNNYPRLRELDRNELFEKAKNEILDEVISLSQVTPKHWEEILQQSLWERVSTHVIENIYLPAAQTMNSGTFNTTVDIKLKQWTDKQLPNKAVEVAWETLQEEFSRFMTEPKGKEHDDIFDKLKEAVKEESIKRHKWNDFAEDSLRVIQHNALEDRSISDKQQWDAAIYFMEEALQARLKDTENAIENMVGPDWKKRWLYWKNRTQEQCVHNETKNELEKMLKCNEEHPAYLASDEITTVRKNLESRGVEVDPSLIKDTWHQVYRRHFLKTALNHCNLCRRGFYYYQRHFVDSELECNDVVLFWRIQRMLAITANTLRQQLTNTEVRRLEKNVKEVLEDFAEDGEKKIKLLTGKRVQLAEDLKKVREIQEKLDAFIEALHQEK
notes: OPA1, human, long form, residues 88-960 of UniProt O60313-1 (isoform 1), codon optimized for Pichia pastoris; Construct: Twin-Strep-tag, HRV 3C site, (G4S)3 linker at the N-terminus; (G4S)3 linker, TEV site, deca-histidine tag at the C-terminus; also called WT l-Opa1; TwinStrep-lOPA1-H10
B2: short form of human Opa1 (s-Opa1, S1 form), wild type (natural protein, UniProt O60313-1 195-960, looked up)
chain: ATDRGSESDKHFRKVSDKEKIDQLQEELLHTQLKYQRILERLEKENKELRKLVLQKDDKGIHHRKLKKSLIDMYSEVLDVLSDYDASYNTQDHLPRVVVVGDQSAGKTSVLEMIAQARIFPRGSGEMMTRSPVKVTLSEGPHHVALFKDSSREFDLTKEEDLAALRHEIELRMRKNVKEGCTVSPETISLNVKGPGLQRMVLVDLPGVINTVTSGMAPDTKETIFSISKAYMQNPNAIILCIQDGSVDAERSIVTDLVSQMDPHGRRTIFVLTKVDLAEKNVASPSRIQQIIEGKLFPMKALGYFAVVTGKGNSSESIEAIREYEEEFFQNSKLLKTSMLKAHQVTTRNLSLAVSDCFWKMVRESVEQQADSFKATRFNLETEWKNNYPRLRELDRNELFEKAKNEILDEVISLSQVTPKHWEEILQQSLWERVSTHVIENIYLPAAQTMNSGTFNTTVDIKLKQWTDKQLPNKAVEVAWETLQEEFSRFMTEPKGKEHDDIFDKLKEAVKEESIKRHKWNDFAEDSLRVIQHNALEDRSISDKQQWDAAIYFMEEALQARLKDTENAIENMVGPDWKKRWLYWKNRTQEQCVHNETKNELEKMLKCNEEHPAYLASDEITTVRKNLESRGVEVDPSLIKDTWHQVYRRHFLKTALNHCNLCRRGFYYYQRHFVDSELECNDVVLFWRIQRMLAITANTLRQQLTNTEVRRLEKNVKEVLEDFAEDGEKKIKLLTGKRVQLAEDLKKVREIQEKLDAFIEALHQEK
notes: OPA1, human, short form corresponding to the S1 form that results from Oma1 cleavage, residues 195-960 of UniProt O60313-1, codon optimized for Pichia pastoris; Construct: Twin-Strep-tag, HRV 3C site, (G4S)3 linker at the N-terminus; (G4S)3 linker, TEV site, deca-histidine tag at the C-terminus; His tag said to be cleaved with TEV in all the functional assays; also called WT s-Opa1; …
B3: G300E mutant of s-Opa1 (s1) (natural protein, human, UniProt O60313-1 195-960, looked up)
chain: B2 chain with G106E
notes: OPA1, human, short form (S1), residues 195-960 of UniProt O60313-1, with G300E; same tags and linkers as m2; also called G300E s-Opa1; sOPA1 (G300E); source: Pichia pastoris SMD1163, purified

Experiments:
[1] = target: the molecule itself; test: native gel or EMSA; Blue native PAGE (BN-PAGE), 3-12% Bis-Tris gradient gels, sample buffer with 0.25% Coomassie G-250 and 1 mM DDM, cathode buffer with 1 mM DDM, 4 °C; mixtures of l-Opa1 and s-Opa1 incubated on ice for 10 min before loading
[2] = target: B1; test: as above; conditions: both partners purified

binding result [2]	Binder	binding result [1]
	B1	binds
	B2	binds
binds	B3	
